Target: N,N-dimethylated casein

B1: 3×HA-6His tag fusion transglutaminase (AO090023000250 of Aspergillus oryzae with a C-terminal 3×HA-6His tag) (protein)
chain: MAEETQVLSIQQRIAALNQAQVGQSPQAAASPLLGAQPTPFASRPAPSRQQTINNPPVNSHDSLGDRNEPTGAQPKPVPRPPPIPVQKPRAPPPLPARKASTESAPALPPRRPSGFSRKESRESLGSDVSHSTSTSAGRATIASTTSNNSDTIRSVRAPAWGAKLPPLPPKRQDTKTVQPPPRPRPSPANSSRSLSQGRPSLPPRRESTNSTSTNGNRSTSRPPPPLPSRINSDKSPGPSADTNGKQSTRKLPPPPPSSAALEKIQSSGLAGINRNTENSGKGTNGSVQEPQPNGVPPPVPRATRPDVDLAKLQATKPRLCKTTHSATAPSTMCLKCRDFSAPDAHAAQYPRESLPSYDLAWLARELTAPFPSPTDKARALFTWFHHNIEYDVHSFFNKCVKPSTPAGTLASGLAVCEGYASLFATLATHAGLEAVVVAGHGKGYGYDAPAPGSPIPPVSATGHAWSAVRIDNGQWKLLDACWGAGVVQGPGLPYKKQFNPAMFTDSNDEFGLRHFPSNRSHFFRDDGRPEITWEEYILGNPNSPLSAEQPTIFGDAQNHSIGERSFRPAAKQISIHDPSPLRFQFNLICEHWTLEHHTRAKPGLFLLMVHGLDGRQDDRLPFTHVRGSGPGGGGDFWYVDVPNAKILGAPGQKLAIAVLTSFGDRKDARGVTAEEYRQQVGRVGMAWAYIAEWQLV
B1 was tested, and the “polymerization of casein (SDS-PAGE, Coomassie blue staining)” value was “in the presence of the purified or unpurified 3×HA-6His tag fusion protein, polymerization of casein was observed”.

From patent publication US20230235299
